Results on one substance are retold here after paper PMC8166773.

In the assay the target is influenza HA proteins mixture of A/California/7/09 (H1N1), A/Victoria/210/09 (H3N2), and B/Brisbane/. The experiment in a line: SPR. Particulars: natural protein.

For orientation: Kd means the free concentration of one partner at which half of the binding sites on the other are occupied at equilibrium, for simple one-to-one binding. As usually defined, the koff is a measure of how fast the partners let go of each other. Turning to Pseudomonas taiwanensis lectin (PTL), the dissociation constant Kd turned out to be 8.9 nM and the dissociation rate constant (koff) was determined as 9.1e-06 s⁻¹.
